Test results published in EP4659811A1 (Université de Strasbourg, dated 2025).
Numbering of substitutions follows the chain as printed.

B1: antibody E10P2 (antibody, V domains shown)
VH: EVQLLESGGALVQPGGSLRLSCAASGFTFRSYAMNWVRQAPGKGLEWVSSLSSSGTTTYYADSVKGRFTISRDNSKNTMYLQMDSLRGEDTAVYYCAKDRNAQWLGSEPLDPWGQGTLVTVSS
VL: EIVLTQSPGTLSLSPGERATLSCRASQSVSSSYLAWYQQKPGQAPRLLIYGASSRATGIPDRFSGSGSGTDFTLTISSLQPDDFAIYYCQQAYTFPWTFGQGTKLEIK
B2: antibody G8P7 (antibody, V domains shown)
VH: QLQLQESGPGLVQPSETLSLTCTVSGGYISTSSYYWGWIRQPPGKGLEWIGSIEYSGSTYYNPSLKSRVTISVDTSKNQFSLKLSSVTAADTAVYYCASANSKYYDSGGYYAPGALDLWGQGTMVTVSS
VL: EIVMTQSPATLSVSPGERATLSCRASQSVSSHLAWYQHKRGQAPRLLIYAASSRATGIPARFSGRGSGTEFTLTISSLQSEDFAVYYCQQYNNWPPGYSFGQGTKLEIK
B3: antibody B9P4 (antibody, V domains shown)
VH: EVQLVESGGGVVQPGRSLRLSCAASGFTFSSYGMHWVRQAPGKGLEWVAVISKDGSNKYEADFVKGRFTISRDNSKNTLYLQMNSLRAEDTAVYYCAKIPLRRYSDSGDYSSGDFWGQGTLVTVSS
VL: DVVMTQSPLSLTVTLGQPASISCRSSENLVYSDGNTYLSWFQQRPGQSPRRLIYKVSTRDSGVPDRFSGSGSGTDFTLKISRVEAEDVGVYYCMQTTHWPPLTFGGGTKVEIK
B4: antibody G7P3 (antibody, V domains shown)
VH: EVQLVESGGGLVQPGGSLRLSCAASGFSFGSYSMNWVRQAPGKGLEWVSHISSGSSSIYYADSVKGRFTISRDSVKNSLYLQMNNLRAEDTAVYYCARGWTGYDAFDIWGQGTMVTVSS
VL: DIQMTQSPSSLSASVGDRVTITCRASQVISNYLAWYQEKPGKVPKLLIYAASTLQSGVPSRFSGSGTGTDFTLTIRSLQPEDVATYYCQKYNNAPLTFGGGTKVEIK
B5: antibody E8P5 (antibody, V domains shown)
VH: B4 VH with Q13H, S28R, S31T, Y95F
VL: B4 VL with K42E, R76S
B6: antibody B3P3 (antibody, V domains shown)
VH: EVQLVESGGGVVQPGRSLRLSCVTSGFTFESYGIHWVRQAPGKGLEWVAVISNDGSIEDYAGSVKGRFTISGDKAKNTVYLQVNSLRPDDTAVYYCAKDAVGITGGSLYYSYGMDVWGQGTTVTVSS
VL: DIQMTQSPSPLSAFIGGRVTITCRASQTIKNYLNWYQQKPGEAPKLLIYTASTLQNGVPSRFSGSRSGTDFTLTITSLQPEDFATYYCQQSYSAPYSFGQGTKLEIK
B7: antibody F11P5 (antibody, V domains shown)
VH: QVQLVQSGSELKKPGASVKVSCKASAYTFTNSAINWVRQAPGQGLEWMGWINTNTGNPAYAQGFRGRFVFSLDTSVSEAYLQISNLKAEDTATYYCTVPYNFGGDHNSYYFFGVDIWGQGTTVTVSS
VL: QSALTQPASVSGSPGQSITISCTGSSSDVGSYNLVSWFQQHPAKAPKVMIYEGTKRPSGVSDRFSGSKSGNTASLTISGLQAEDEADYYCCSYAGSNTFVFGTGTKVSVL
B8: antibody C4P7 (antibody, V domains shown)
VH: EVQLLESGGGLVQPGGSLRLSCAASGFTFSSYAMSWVRQAPGKGLEWVSSLTGSGGSTYYRDSVKGRFTIFRDNSKKTLYMQMNSLRAEDTAVYYCAKEGAYSYDFWYFDLWGRGTLVTVSS
VL: EIVLTQSPGTLSLSPGERATLSCRASQTVSGNYLAWYQQKPGQSPSLLIYGASSRATGIPDRFTGSGSGTDFTLTISRLEPADFAVYYCQQYGRPLTFGGGTKVEIK
B9: antibody B9P6 (antibody, V domains shown)
VH: EVQLVESGGGLVQPGGSLRLSCAASGFTFRSYTMDWVRQAPGKGLEWVSCISGSSNHKYYADSVRGRFTISRDNAKNSLFLQMNSLRAEDSAVYYCAREDDILTPLYGMDVWGPGTTVTVSS
VL: EIVLTQSPDTLSLSPGARATLSCRASQSVRSNYLAWYQQKPGQAPRLLIYGASSRATAIPDRFSGSGSGTDFTLTITRLEPEDFAVYYCHQYGSSPRTFGQGTKVEIK
B10: antibody G11P1 (antibody, V domains shown)
VH: B9 VH with T33S, C50Y, H57Q, A61T
VL: B9 VL with G93A
B11: antibody E9P7 (antibody, V domains shown)
VH: B9 VH with A23T, F80L
VL: B9 VL
B12: antibody E11P6 (antibody, V domains shown)
VH: B9 VH with T33S, C50Y, H57Q, A61T
VL: B9 VL with F72L, G93A
B13: antibody C6P8 (antibody, V domains shown)
VH: EVQLVESGGGLVQPGGSLKLSCAASGFTFSGSEIHWVRQASGKGLEWIGRVRSRANRHATGYSESVKGRFTISRDDSKNTASLQLNSLKIEDTAVYYCTGVRGVISRYFAMDVWGQGTTVTVSS
VL: SYVLTQTPSVSVAPGQTARITCGGNNIGSNSVHWYQQKPGQAPILVVYDDSERPSGIPERFSGSNSGNTATLTISRVEGGDEADYQCQVWDRRGDLLVFGGGTKLTVL
B14: antibody C10P8 (antibody, V domains shown)
VH: QVQLQESGPGLVKPSQTLSLTCTVSGGSISSGRYYWSWIRQPAGKGLEWIGRVYFSGSTNYNPSLKNRVTLSVDTSKNQFSLKLSSVIAADTAVYYCARAVRDYGDSYSFDYWGQGTLVTVSS
VL: QSALTQPASVSGSPGQSITISCTGSSSDIGGYNYVSWYQVHPGKAPHLKIYDVVNRPSGVSNRFPGSKSGNTASLTISGLLADDEAYYYCCSYSIRGTPVFGGGTKLTVL
B15: antibody B10P5 (antibody, V domains shown)
VH: EVQLVESGGGLVQPGGSLRLSCSASGFTFSTYTMNWVRQAPGKGLDWVSYISSRSTSIYYADSVKGRFTISRDNAKNSLYLHMTSLRAEDTAVYYCVRDRGYYGSNWFDSWGQGTLVTVSS
VL: QSALTQPRSVSGSPGQSVTISCTGTSSDVGNYNYVSWYQQHPGKAPRLMISDVTKRPSGVPDRFSGSKSGNTASLTISGLQAEDEGDYYCCAYAGSYTLVFGGGTKLTVL
B16: antibody E10P5 (antibody, V domains shown)
VH: QVQLQESGPGLVKPSQTLSLTCSVSGGSISSGNYYWSWIRQPAGKGLEWIGRIYTSGNTNYNPSLKSRVTMSVDTSKNQFSLKLSSVTATDTAVYYCARVRRDGYNAFDYWGQGTLVTVSS
VL: SYELTQPPSVSVSPGQTASIDCSGHNLGDKFTCWYQQKPGQSPVLVIYQDSKRPSGIPERFSGSNSGNTATLTISGTQAMDEADYYCQAWDSDTLYVFGTGTTVTVL
B17: antibody C10P7 (antibody, V domains shown)
VH: QVQLVQSGSEVKKPGTSVKVSCKASGETYVGHSISWVRQAPGAGLEWMGWISLHNGNVKYAQKLQGRVTMTTDTSTITAYMELRNLTSDDTAVYYCARVPMKIYGVIVFGEYYYDQLDVWGQGTTVTVSS
VL: QSALTQPPSASGSPGQSVTISCTGTGSDVGGYNYVSWYQQHPGKAPKLMIYEVSKRPSGVPDRFSGSKSGNTASLTVSGLQAEDEADYYCSSYAGSKVVFGGGTKLTVL
B18: antibody B7P3 (antibody, V domains shown)
VH: EVQLVESGGGVVQPGRSLRLSCAASGFTFSNFGMHWVRQPPGKGLEWVAVISYDGSDKFYADSVKGRFTISRDNFKNTLYVQMNSLRAEDTAVYYCAKDRVRTKYYYDHSGPFDYWGRGTLVTVSS
VL: SYVLTQPPSVSVAPGQTARIACGGNNIGSKSVHWYQQRPGQAPVLVVYDDDDRPSGIPERFSGSNSGNTATLTISRVEAGDEADYFCQVWMTNSDRPVFGGGTKLTVL

What was measured:
[1] = biological target: T1, VP1 pentamer of BKV genotype II (recombinant) (BK virus genotype II, UniProt P14996 30-300); assay: ELISA, coated VP1 pentamer
T1 construct: also called GII; VP1 geno II pentamer; not shown: N-terminal His-tag of pESPRIT002; C-terminal biotin acceptor peptide (BAP) of pESPRIT002

[2] = biological target: T2, VP1 pentamer of BKV genotype IV (recombinant) (BK virus genotype IV, UniProt P14996 30-300); assay: ELISA, coated VP1 pentamer
T2 construct: also called GIV; VP1 BKV subtype IV; not shown: N-terminal His-tag of pESPRIT002; C-terminal biotin acceptor peptide (BAP) of pESPRIT002

[3] = biological target: VP1 capsid protein on BKV pseudovirions of genotype IVc2 (A-66H; AB369093) (BK virus genotype IVc2 (A-66H)); assay: cell-based or functional assay
[4] = biological target: VP1 capsid protein on BKV pseudovirions of genotype II (GBR-12; AB263920) (BK virus genotype II (GBR-12)); assay: cell-based or functional assay
[5] = biological target: VP1 capsid protein on BKV pseudovirions of genotype Ia (BK-D; JF894228) (BK virus genotype Ia (BK-D)); assay: cell-based or functional assay

Binder	binding result [1]	binding result [2]	Neutralization PSV IC50 [3] [µg/mL]	Neutralization PSV IC50 [4] [µg/mL]	Neutralization PSV IC50 [5] [µg/mL]	EC50 [1] [µg/mL]	EC50 [2] [µg/mL]
B1	no binding (tested: starting at 50 µg/mL)	no binding (tested: starting at 50 µg/mL)	> 50	20.1	1.64		
B2			> 50	21.3	> 50	25	5
B3			> 50	16.3	4.96	≥ 7	≥ 10
B4			> 50	0.0054	0.0008		
B5			> 50	0.004	0.0013		
B6			> 50	> 50	> 50		
B7			46.5	1.56	0.492		
B8			> 3.12	0.0609	0.493		
B9			0.0176	0.0002	0.0371	0.035	0.12
B10			0.02	0.0008	0.112	0.055	0.035
B11			0.0333	0.0003	0.277	0.1	0.2
B12			0.0452	0.0028	0.216	0.09	0.12
B13			1.74	0.44	6.92	3	4
B14			> 12.5	> 12.5	> 12.5		
B15			> 50	> 50	> 50		
B16			> 50	0.0433	0.0004		
B17			> 50	11.2	6.56	8	18
B18			> 50	3.43	0.0004		
